Paper PMC3355305, “Localized Dimerization and Nucleoid Binding Drive Gradient Formation by the Bacterial Cell Division Inhibitor MipZ” (Molecular Cell, 2012)

How the values were obtained:
ParB = biological target: ParB; set-up: method as in Thanbichler and Shapiro, 2006; details: apo-MipZ; ref Thanbichler and Shapiro, 2006; cited from earlier work
MipZ dimer = experiment: Concentration dependence of the MipZ ATPase activity; type: biochemical, Caulobacter crescentus
Protocol: Figure 2 Biochemical Analysis of MipZ Dimerization (A) ATPase cycle of MipZ. See the main text for details. (B and C) SPR analysis of MipZ self-association. MipZ or its mutant derivatives (3500 RU) were immobilized on a sensor chip and tested for homotypic interaction with the respective soluble protein (0.5 μM) in the presence of ADP (B) or ATP (C). After the binding phase, the chip was washed with buffer lacking protein and nucleotides to follow the dissociation reaction. The rate constants (koff) determined for the dissociation of the MipZ and MipZ-D42A complexes are 0.83 min^−1 and 0.067 min^−1, respectively. (D) Nucleotide-dependent dimerization of MipZ. MipZ-D42A was incubated with ADP (blue), ATP (orange) or ATPγS (red) and subjected to size exclusion chromatography. (E) ATPase activity of MipZ and its mutant derivatives. The graph gives the average turnover rate (kapp, average turnovers/min per molecule of MipZ) of the different MipZ derivatives (6 μM). Data represent the average of at least three independent experiments (±SD). Note that consistent with a critical role of the metal cofactor in dimerization and catalysis Mg^2+ was required for ATP turnover (Figure S2H). (F) Concentration dependence of the MipZ ATPase activity. The average turnover rate of MipZ (kapp) was determined at the indicated protein concentrations. Fitting of the data to a model that relates kapp to the relative abundance of dimers at the indicated MipZ concentrations (see the Experimental Procedures) yielded values of 8.0 μM (±1.2 μM) for the apparent equilibrium dissociation constant (K) of the MipZ dimer and 0.67 min^−1 (±0.03 min^−1) for the turnover number (kcat) of MipZ molecules in the dimeric state. The rate of dimer formation (kon ∼ kcat/K) derived from these values is 1.4 × 10^3 M^−1 s^−1. Data represent the mean of two independent experiments. See also Figure S2. TEXT PRINTED IN THE PICTURE: (F) MipZ: K = 8.0 μM; kcat = 0.67 min^-1 […]
According to the law of mass action, MipZ exists as a mixture of monomers (assumed to be largely in the ATP-bound state) and dimers, the equilibrium ratio of which depends on the total concentration of MipZ molecules in the reaction. […] Its average turnover rate (kapp) increased with rising protein concentrations and finally approached a plateau that likely reflects a situation in which all MipZ molecules have transitioned to the active, dimeric state. […]
β-galactosidase, MipZ, and FtsZ activity assays are detailed in the Supplemental Experimental Procedures. […]
obtained from crystals flash frozen in a solution of 95% 2 mM, sa mp le s were taken and analyzed for the amount ethanol/50 mM Tris (pH 8.5), and collected at ID23-2, of [α-32P]-GDP produced in the reaction as described ESRF (Grenoble, France). […]

B1: MipZ: P loop ATPase and cell division inhibitor of Caulobacter crescentus; hexahistidine-tagged in vitro, YFP fusion in FRAP (protein)
chain: MAETRVIVVGNEKGGAGKSTIAVHLVTALLYGGAKVAVIDLDLRQRTSARFFENRRAWLDNKKIELPEPLALNLSDNDVALAERPEEEQVAGFEAAFARAMAECDFILIDTPGGDSAITRMAHGRADLVVTPMNDSFVDFDMLGTVDPVTLELTKPSLYSLTVWEGRKQRALSGQRQAMDWVVLRNRLATTEARNRKRLEDRLNALAKRVGFRIGPGLRDRVIYRELFPFGLTIADLSPQVRPVPVSLQHLAARQELRALMHSLGLSAYSGETMLAAQ
modifications: left off: His6, end not stated, state not stated
notes: hexahistidine-tagged in vitro, YFP fusion in FRAP
Kd (ParB): ~2 µM
turnover number (kcat) of MipZ molecules in the dimeric state (MipZ dimer; ATP hydrolysis, fit of kapp vs MipZ concentration): 0.0112 s⁻¹
rate of dimer formation (kon ∼ kcat/K) (MipZ dimer; derived from K and kcat): 1400 M⁻¹ s⁻¹
Kd (MipZ dimer; fit of kapp vs MipZ concentration, 2 mM ATP, read-out: apparent equilibrium dissociation constant (K) of the MipZ dimer): 8 µM
lifetime of the sandwich dimer (τ ∼ 1/kcat) (MipZ dimer; hydrolysis-driven dissociation): ~90 s
